In patent US20240252592A1 (TIANJIN INSTITUTE OF PHARMACEUTICAL RESEARCH, published 2024):
Numbered stars: 1 amine (or outer) side, 2 acyl side, 3 side chain; on linkers, the order of the positions; unused ones are H or OH. Square brackets hold non-standard residues; d marks the D form. Side chains are listed from the residue outwards. Ends that are not written are not given here. * marks the point of attachment. C20 diacid = O=C(O)CCCCCCCCCCCCCCCCCCC(=O)*; C18 diacid = O=C(O)CCCCCCCCCCCCCCCCC(=O)*; γGlu = O=C(O)[C@H](CCC(=O)[*:2])N[*:1]; Palmitoyl = CCCCCCCCCCCCCCCC(=O)*; AEEA = NCCOCCOCC(=O)O; Aib = CC(C)(N)C(=O)O

These binders were tested against GC receptor (assay: cell-based or functional assay).

Binder	EC50 of GC receptor mediated cAMP production [nM]
H[Aib]QGTFTSDK([AEEA-AEEA-γGlu-C18 diacid])SKYLDERAAKEFIAWLEGGPSSG-NH2 (not fully specified; printed as HAibQGTFTSDK**SKYLDERAAKEFIAWLEGGPSSG-Amid) [Compound 75]	0.087
H[Aib]QGTFTSDK([AEEA-AEEA-γGlu-C20 diacid])SKYLDERAAKEFIAWLEAGGPSSG-NH2 (not fully specified; printed as HAibQGTFTSDK***SKYLDERAAKEFIAWLEAGGPSSG-Amid) [Compound 77]	0.076
H[Aib]QGTFTSDK([AEEA-AEEA-γGlu-C18 diacid])SKYLEERAAKEFIAWLEGGPSSG-NH2 (not fully specified; printed as HAibQGTFTSDK**SKYLEERAAKEFIAWLEGGPSSG-Amid) [Compound 6]	0.052
H[Aib]QGTFTSDK([AEEA-AEEA-γGlu-C20 diacid])SKYLEERAAKEFIAWLEAGGPSSG-NH2 (not fully specified; printed as HAibQGTFTSDK***SKYLEERAAKEFIAWLEAGGPSSG-Amid) [Compound 35]	0.036
HXQGTFTSDKSKYLXERAAKEFVXWLEAGGPSSG (HELM PEPTIDE1{H.[Aib].Q.G.T.F.T.S.D.K.S.K.Y.L.E.E.R.A.A.K.E.F.V.A.W.L.E.A.G.G.P.S.S.G.[am]}|PEPTIDE2{[CCCCCCCCCCCCCCCC(=O)[*:2]].[gGlu].[gGlu]}$PEPTIDE1,PEPTIDE2,10:R3-3:R2$$$V2.0; N-terminus assumed; SMILES CCCCCCCCCCCCCCCC(=O)N[C@@H](CCC(=O)N[C@@H](CCC(=O)NCCCC[C@H](NC(=O)[C@H](CC(=O)O)NC(=O)[C@H](CO)NC(=O)[C@@H](NC(=O)[C@H](Cc1ccccc1)NC(=O)[C@@H](NC(=O)CNC(=O)[C@H](CCC(N)=O)NC(=O)C(C)(C)NC(=O)[C@@H](N)Cc1c[nH]cn1)[C@@H](C)O)[C@@H](C)O)C(=O)N[C@@H](CO)C(=O)N[C@@H](CCCCN)C(=O)N[C@@H](Cc1ccc(O)cc1)C(=O)N[C@@H](CC(C)C)C(=O)N[C@@H](CCC(=O)O)C(=O)N[C@@H](CCC(=O)O)C(=O)N[C@@H](CCCNC(=N)N)C(=O)N[C@@H](C)C(=O)N[C@@H](C)C(=O)N[C@@H](CCCCN)C(=O)N[C@@H](CCC(=O)O)C(=O)N[C@@H](Cc1ccccc1)C(=O)N[C@H](C(=O)N[C@@H](C)C(=O)N[C@@H](Cc1c[nH]c2ccccc12)C(=O)N[C@@H](CC(C)C)C(=O)N[C@@H](CCC(=O)O)C(=O)N[C@@H](C)C(=O)NCC(=O)NCC(=O)N1CCC[C@H]1C(=O)N[C@@H](CO)C(=O)N[C@@H](CO)C(=O)NCC(N)=O)C(C)C)C(=O)O)C(=O)O) [Compound 4]	0.024
HXQGTFTSDKSKYLXERAAKEFVXWLEAGGPSSG (HELM PEPTIDE1{H.[Aib].Q.G.T.F.T.S.D.K.S.K.Y.L.E.E.R.A.A.K.E.F.V.E.W.L.E.A.G.G.P.S.S.G.[am]}|PEPTIDE2{[CCCCCCCCCCCCCCCC(=O)[*:2]].[gGlu].[gGlu]}$PEPTIDE1,PEPTIDE2,10:R3-3:R2$$$V2.0; N-terminus assumed; SMILES CCCCCCCCCCCCCCCC(=O)N[C@@H](CCC(=O)N[C@@H](CCC(=O)NCCCC[C@H](NC(=O)[C@H](CC(=O)O)NC(=O)[C@H](CO)NC(=O)[C@@H](NC(=O)[C@H](Cc1ccccc1)NC(=O)[C@@H](NC(=O)CNC(=O)[C@H](CCC(N)=O)NC(=O)C(C)(C)NC(=O)[C@@H](N)Cc1c[nH]cn1)[C@@H](C)O)[C@@H](C)O)C(=O)N[C@@H](CO)C(=O)N[C@@H](CCCCN)C(=O)N[C@@H](Cc1ccc(O)cc1)C(=O)N[C@@H](CC(C)C)C(=O)N[C@@H](CCC(=O)O)C(=O)N[C@@H](CCC(=O)O)C(=O)N[C@@H](CCCNC(=N)N)C(=O)N[C@@H](C)C(=O)N[C@@H](C)C(=O)N[C@@H](CCCCN)C(=O)N[C@@H](CCC(=O)O)C(=O)N[C@@H](Cc1ccccc1)C(=O)N[C@H](C(=O)N[C@@H](CCC(=O)O)C(=O)N[C@@H](Cc1c[nH]c2ccccc12)C(=O)N[C@@H](CC(C)C)C(=O)N[C@@H](CCC(=O)O)C(=O)N[C@@H](C)C(=O)NCC(=O)NCC(=O)N1CCC[C@H]1C(=O)N[C@@H](CO)C(=O)N[C@@H](CO)C(=O)NCC(N)=O)C(C)C)C(=O)O)C(=O)O) [Compound 2]	0.0352

The binders below were run against human GLP-1 receptor (human, UniProt P43220 24-463) (assay: cell-based or functional assay).

Binder	EC50 of GLP-1 receptor mediated cAMP production [nM]
H[Aib]QGTFTSDK([γGlu-γGlu-Palmitoyl])SKYLEERAAKEFVEWLEGGPSSG-NH2 (not fully specified; printed as HAibQGTFTSDK*SKYLEERAAKEFVEWLEGGPSSG-Amid) [Compound 7]	0.72
HXQGTFTSDKSKYLXERAAKEFVXWLEGGPSSG (HELM PEPTIDE1{H.[Aib].Q.G.T.F.T.S.D.K.S.K.Y.L.E.E.R.A.A.K.E.F.V.E.W.L.E.G.G.P.S.S.G.[am]}|PEPTIDE2{[CCCCCCCCCCCCCCCC(=O)[*:2]].[gGlu].[gGlu]}$PEPTIDE1,PEPTIDE2,10:R3-3:R2$$$V2.0; N-terminus assumed; SMILES CCCCCCCCCCCCCCCC(=O)N[C@@H](CCC(=O)N[C@@H](CCC(=O)NCCCC[C@H](NC(=O)[C@H](CC(=O)O)NC(=O)[C@H](CO)NC(=O)[C@@H](NC(=O)[C@H](Cc1ccccc1)NC(=O)[C@@H](NC(=O)CNC(=O)[C@H](CCC(N)=O)NC(=O)C(C)(C)NC(=O)[C@@H](N)Cc1c[nH]cn1)[C@@H](C)O)[C@@H](C)O)C(=O)N[C@@H](CO)C(=O)N[C@@H](CCCCN)C(=O)N[C@@H](Cc1ccc(O)cc1)C(=O)N[C@@H](CC(C)C)C(=O)N[C@@H](CCC(=O)O)C(=O)N[C@@H](CCC(=O)O)C(=O)N[C@@H](CCCNC(=N)N)C(=O)N[C@@H](C)C(=O)N[C@@H](C)C(=O)N[C@@H](CCCCN)C(=O)N[C@@H](CCC(=O)O)C(=O)N[C@@H](Cc1ccccc1)C(=O)N[C@H](C(=O)N[C@@H](CCC(=O)O)C(=O)N[C@@H](Cc1c[nH]c2ccccc12)C(=O)N[C@@H](CC(C)C)C(=O)N[C@@H](CCC(=O)O)C(=O)NCC(=O)NCC(=O)N1CCC[C@H]1C(=O)N[C@@H](CO)C(=O)N[C@@H](CO)C(=O)NCC(N)=O)C(C)C)C(=O)O)C(=O)O) [Compound 5]	0.26
